Publication doi:10.1101/2022.03.11.483938v2

What was measured:
purified protein [1] = substrate: Nc1ncnc2c1ncn2[C@@H]1O[C@H](COP(=O)(O)O)[C@@H](O)[C@H]1O; assay: purified protein; details: hydrolysis rate gradually decreased under the selected conditions
purified protein [2] = substrate: Nc1ncnc2c1ncn2[C@H]1C[C@H](O)[C@@H](COP(=O)(O)O)O1; assay: purified protein; details: constant hydrolysis rate

B1: SiE5NT (ecto-5'-nucleotidase) (Serendipita indica DSM 11827) (protein)
chain: KVDSLVSERALQKRFVDANGNYNVTIVHTNDVHAHLDQWRAGRGTDCTPGSECISGYARIKQKVSELRQSIQDPIFLNAGDEFQGTLFFTYYGGEKISYAINEVGYDVFTLGNHEFDRGQGELAAFLKNLTFPVVCANFKTNDTAMNALNIQPYTIIEKHQLGIIGVITPDTKGTSSGAGPGTEFSDPVQAVQKAVDELQAKNITRIIALTHIGYDKDIELAQKTKGVDLIVGGHSHTLLGNFTNAMGSYPTTAKNLDGEEVFIVTSYRWGEILGKMNIAFDASGKIVSYEGEPLRLTNTTQQDPKLQAEVNEWRQPFDAMAQVVVGTSSVVLDQSICQFSECTLGNVITDAMYEYRKNAGGNVDFALINSGGIRASISEGTVTQGDILTSFPFMNGVVDLTWTGKQLLDIFEGVVSKYSTLSHHATTSFIQVSKQVKFSWNPNNVNQTRLITLEIGGQQVDVNKNYTMVTLDFLASNGDYLWGTRTDFAALDTLDVVLASYFKAHSPVGASIEGRITNSTSTTQQLPGKGSSGGSGGASALIVSGLSAGMMLLAGMMLV
B1 was tested, and the Km (purified protein [1]) was 15.9 µM, the kcat (purified protein [1]) was 1.1 s⁻¹ and the Km (purified protein [2]) was 361.6 µM. The kcat (purified protein [2]) was 11.9 s⁻¹.
